Measurements from patent publication US20200255519A1 (University of California, published 2020).

Experiments:
[1] = target: T1, BCL-xL/Bak-peptide complex: biotinylated BCL-xL (residues 2-215) in the presence of 5 µM Bak peptide (human, UniProt Q07817 2-215, biotin on the N-terminal AviTag); test: biolayer interferometry, immobilized BCL-xL, 100 nM Fab with 5 µM Bak peptide
T1 construct: Bak peptide bought from Anaspec (AS-61616); not shown: N-terminal tags (pMCSG7 vector tag used for Ni-NTA, AviTag, TEV cut site)
T1 sequence (Q07817 2-215, one chain of several): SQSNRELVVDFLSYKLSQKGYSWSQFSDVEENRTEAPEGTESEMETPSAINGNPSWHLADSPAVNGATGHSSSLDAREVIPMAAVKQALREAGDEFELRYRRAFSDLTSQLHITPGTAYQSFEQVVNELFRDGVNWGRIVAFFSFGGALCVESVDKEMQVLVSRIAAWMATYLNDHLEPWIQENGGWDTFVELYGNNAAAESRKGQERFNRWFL

[2] = target: T2, BCL-xL/ABT-737 complex: biotinylated BCL-xL (residues 2-215) in the presence of 1 µM ABT-737 (human, UniProt Q07817 2-215, biotin on the N-terminal AviTag; small molecule ABT-737 bound non-covalently); test: ELISA, biotinylated BCL-xL captured on NeutrAvidin, Fab titrated with 1 µM ABT-737, anti-Fab-HRP detection
T2 construct: Same protein as m1; not shown: N-terminal tags (pMCSG7 vector tag used for Ni-NTA, AviTag, TEV cut site)
T2 sequence (Q07817 2-215, one chain of several): as above

[3] = target: biotinylated C-terminally truncated BCL-xL (residues 2-215), no ligand (DMSO vehicle) (human) (UniProt Q07817); test: BLI (Octet), biotinylated BCL-xL on streptavidin sensor, Fab as analyte, no ABT-737
Sequence of biotinylated C-terminally truncated BCL-xL (residues 2-215), no ligand (DMSO vehicle) (human) (Q07817 2-215): as the sequence (Q07817 2-215, one chain of several) above

[4] = target: T3, biotinylated C-terminally truncated BCL-xL (residues 2-215), no ligand (DMSO vehicle) (human, UniProt Q07817 2-215, biotin on the N-terminal AviTag); test: ELISA, biotinylated BCL-xL captured on NeutrAvidin, Fab titrated with 0.05% DMSO (no ABT-737), anti-Fab-HRP detection [continued]
T3 construct: also called apo BCL-xL; not shown: N-terminal tags (pMCSG7 vector tag used for Ni-NTA, AviTag, TEV cut site)
T3 sequence (Q07817 2-215): as the sequence (Q07817 2-215, one chain of several) above

[5] = target: T2, BCL-xL/ABT-737 complex: biotinylated …; test: ELISA, biotinylated BCL-xL captured on NeutrAvidin, Fab titrated with 1 µM ABT-737, anti-Fab-HRP detection [continued]

Binder | binding result [1] | EC50 (read off the curve) [2] | Kd [3] | binding result [4] | binding result [5]
Fab AZ3 (Fab, Purified Fab; graft limits inferred) heavy: EISEVQLVESGGGLVQPGGSLRLSCAASGFNIYYSYMHWVRQAPGKGLEWVASISPYSSYTSYADSVKGRFTISADTSKNTAYLQMNSLRAEDTAVYYCARYGYSYYYYGALDYWGQGTLVTVSSASTKGPSVFPLAPSSKSTSGGTAALGCLVKDYFPEPVTVSWNSGALTSGVHTFPAVLQSSGLYSLSSVVTVPSSSLGTQTYICNVNHKPSNTKVDKKVEPKSCDKTHTGGSHHHHHH light: SDIQMTQSPSSLSASVGDRVTITCRASQSVSSAVAWYQQKPGKAPKLLIYSASSLYSGVPSRFSGSRSGTDFTLTISSLQPEDFATYYCQQGWSGPWLITFGQGTKVEIKRTVAAPSVFIFPPSDSQLKSGTASVVCLLNNFYPREAKVQWKVDNALQSGNSQESVTEQDSKDSTYSLSSTLTLSKADYEKHKVYACEVTHQGLSSPVTKSFNRGECGGSDYKDDDDK | no binding (tested: 100 nM) | ~7 nM | > 5000 nM |  | 
Fab AZ1 (Fab, Purified Fab from E. coli; The scaffold tags are kept) heavy: EISEVQLVESGGGLVQPGGSLRLSCAASGFNLSYSSMHWVRQAPGKGLEWVASISPYSSYTSYADSVKGRFTISADTSKNTAYLQMNSLRAEDTAVYYCARGWVGMDYWGQGTLVTVSSASTKGPSVFPLAPSSKSTSGGTAALGCLVKDYFPEPVTVSWNSGALTSGVHTFPAVLQSSGLYSLSSVVTVPSSSLGTQTYICNVNHKPSNTKVDKKVEPKSCDKTHTGGSHHHHHH light: SDIQMTQSPSSLSASVGDRVTITCRASQSVSSAVAWYQQKPGKAPKLLIYSASSLYSGVPSRFSGSRSGTDFTLTISSLQPEDFATYYCQQYYWGFPSLFTFGQGTKVEIKRTVAAPSVFIFPPSDSQLKSGTASVVCLLNNFYPREAKVQWKVDNALQSGNSQESVTEQDSKDSTYSLSSTLTLSKADYEKHKVYACEVTHQGLSSPVTKSFNRGECGGSDYKDDDDK | no binding (tested: 100 nM) |  | > 5000 nM |  | 
Fab AZ2 (Fab, Purified Fab; graft limits inferred) heavy: EISEVQLVESGGGLVQPGGSLRLSCAASGFNIYSYYMHWVRQAPGKGLEWVAYISPYYSYTSYADSVKGRFTISADTSKNTAYLQMNSLRAEDTAVYYCARGYPWYGMDYWGQGTLVTVSSASTKGPSVFPLAPSSKSTSGGTAALGCLVKDYFPEPVTVSWNSGALTSGVHTFPAVLQSSGLYSLSSVVTVPSSSLGTQTYICNVNHKPSNTKVDKKVEPKSCDKTHTGGSHHHHHH light: SDIQMTQSPSSLSASVGDRVTITCRASQSVSSAVAWYQQKPGKAPKLLIYSASSLYSGVPSRFSGSRSGTDFTLTISSLQPEDFATYYCQQVSWAYPYLITFGQGTKVEIKRTVAAPSVFIFPPSDSQLKSGTASVVCLLNNFYPREAKVQWKVDNALQSGNSQESVTEQDSKDSTYSLSSTLTLSKADYEKHKVYACEVTHQGLSSPVTKSFNRGECGGSDYKDDDDK | no binding (tested: 100 nM) | ~2 nM | > 5000 nM |  | 
Fab AZ5 (Fab, Purified Fab; graft limits inferred) heavy: EISEVQLVESGGGLVQPGGSLRLSCAASGFNLYYYYIHWVRQAPGKGLEWVASIYPSYGSTYYADSVKGRFTISADTSKNTAYLQMNSLRAEDTAVYYCARASVWFGWYVPSAMDYWGQGTLVTVSSASTKGPSVFPLAPSSKSTSGGTAALGCLVKDYFPEPVTVSWNSGALTSGVHTFPAVLQSSGLYSLSSVVTVPSSSLGTQTYICNVNHKPSNTKVDKKVEPKSCDKTHTGGSHHHHHH light: SDIQMTQSPSSLSASVGDRVTITCRASQSVSSAVAWYQQKPGKAPKLLIYSASSLYSGVPSRFSGSRSGTDFTLTISSLQPEDFATYYCQQWPGWYPITFGQGTKVEIKRTVAAPSVFIFPPSDSQLKSGTASVVCLLNNFYPREAKVQWKVDNALQSGNSQESVTEQDSKDSTYSLSSTLTLSKADYEKHKVYACEVTHQGLSSPVTKSFNRGECGGSDYKDDDDK |  |  |  | binds | binds
Fab AZ6 (Fab, Purified Fab; graft limits inferred) heavy: EISEVQLVESGGGLVQPGGSLRLSCAASGFNLSYSYIHWVRQAPGKGLEWVASIYSSSGSTYYADSVKGRFTISADTSKNTAYLQMNSLRAEDTAVYYCARGSHAHGWAWFWYGMDYWGQGTLVTVSSASTKGPSVFPLAPSSKSTSGGTAALGCLVKDYFPEPVTVSWNSGALTSGVHTFPAVLQSSGLYSLSSVVTVPSSSLGTQTYICNVNHKPSNTKVDKKVEPKSCDKTHTGGSHHHHHH light: SDIQMTQSPSSLSASVGDRVTITCRASQSVSSAVAWYQQKPGKAPKLLIYSASSLYSGVPSRFSGSRSGTDFTLTISSLQPEDFATYYCQQSSYSLITFGQGTKVEIKRTVAAPSVFIFPPSDSQLKSGTASVVCLLNNFYPREAKVQWKVDNALQSGNSQESVTEQDSKDSTYSLSSTLTLSKADYEKHKVYACEVTHQGLSSPVTKSFNRGECGGSDYKDDDDK |  |  |  | binds | binds
Fab AZ7 (Fab, Purified Fab; graft limits inferred) heavy: EISEVQLVESGGGLVQPGGSLRLSCAASGFNLSSYSMHWVRQAPGKGLEWVASIYSYYGSTSYADSVKGRFTISADTSKNTAYLQMNSLRAEDTAVYYCARYSPWVYYPYYGWYSGMDYWGQGTLVTVSSASTKGPSVFPLAPSSKSTSGGTAALGCLVKDYFPEPVTVSWNSGALTSGVHTFPAVLQSSGLYSLSSVVTVPSSSLGTQTYICNVNHKPSNTKVDKKVEPKSCDKTHTGGSHHHHHH light: SDIQMTQSPSSLSASVGDRVTITCRASQSVSSAVAWYQQKPGKAPKLLIYSASSLYSGVPSRFSGSRSGTDFTLTISSLQPEDFATYYCQQSSYSLITFGQGTKVEIKRTVAAPSVFIFPPSDSQLKSGTASVVCLLNNFYPREAKVQWKVDNALQSGNSQESVTEQDSKDSTYSLSSTLTLSKADYEKHKVYACEVTHQGLSSPVTKSFNRGECGGSDYKDDDDK |  |  |  | binds | binds
